Consider 1 molecule from patent US20240409663A1 (CONCEPT TO MEDICINE BIOTECH, published 2024).

In experiment [1] the target is T1, human GPC3 on cells (human, UniProt P51654 25-554).
T1 construct: whole, on cells; over-expressed on CHOK1 cells or endogenous on HEPG2, Hep3B and Huh-7 hepatocellular carcinoma cells; the cell line is named under assay; also called GPC3-CHOK1 cells; human GPC3 over-expressed CHOK1 cells
Kind of experiment: FACS, Hep3B cells. Here is the method: (§1) Cell-based binding: FACS was used to evaluate the binding activity of 52H5D3B8 chimeric mAbs with comparison to a known GPC3 antibody GC33 (Chugai Pharmaceutical) on human GPC3 over-expressed CHOK1 cells, HEPG2 cells, Hep3B cells and Huh-7 cells.
(§2) Briefly, GPC3-CHOK1 cells, HEPG2 cells, Hep3B cells or Huh-7 cells were firstly incubated with Fc blocking reagent at 4° C. for 15 mins. Cells were washed by FACS buffer and divided to each well with 3-fold serially diluted 52H5D3B8 chimeric mAbs or GC33 mAb starting at 30 μg/mL at 4° C. for 60 mins. Cells were washed by FACS buffer and fixed with 2% PFA at RT for 15 mins. […] Samples were washed twice with FACS buffer.
For orientation: In flow cytometry, cells or beads pass a laser one at a time.

Experiment [2] concerns the target T1, human GPC3 on cells. Kind of experiment: FACS, Huh-7 cells. The essentials: (§3)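 Cells Fc-blocked 15 mins at 4° C, then incubated 60 mins at 4° C with antibodies in 4-fold serial dilutions from 10 μg/mL. Washed and fixed in 2% PFA before FACS read-out; antibodies split over two plates.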
For experiment [3], the target named is T1, human GPC3 on cells. Kind of experiment: FACS, GPC3-CHOK1 cells. Here is the method:
To evaluate the antigen binding property, the humanized antibodies were analyzed for their binding to human GPC3 over-expressed CHOK1 cells and Huh-7 cells by FACS. Briefly, GPC3-CHOK1 cells and Huh-7 cells were firstly incubated with Fc blocking reagent at 4° C. for 15 mins. Cells were washed by FACS buffer and divided to each well with 4-fold serially diluted humanized antibodies starting at 10 μg/mL at 4° C. for 60 mins. Cells were washed by FACS buffer and fixed with 2% PFA at RT for 15 mins. […] As different plates might affect the EC50 of 52H5D3B8-VH+VL, the 12 humanized antibodies were separated into two plates.

The target of experiment [4] is T1, human GPC3 on cells. Kind of experiment: FACS, Huh-7 cells. Here is the method: Cell-based binding: FACS was used to evaluate the binding activity of 52H5D3B8, 52H5D3B8-6 # chimeric mAbs and GC33 antibody on human GPC3 over-expressed CHOK1 cells, Hep3B cells and Huh-7 cells.
Briefly, GPC3-CHOK1 cells, Hep3B cells or Huh-7 cells were firstly incubated with Fc blocking reagent at 4° C. for 15 mins. Cells were washed by FACS buffer and divided to each well with 3-fold serially diluted 52H5D3B8, 52H5D3B8-6 # chimeric mAbs or GC33 antibody starting at 30 μg/mL at 4° C. for 60 mins. Cells were washed by FACS buffer and fixed with 2% PFA at RT for 15 mins. […] Samples were washed twice with FACS buffer.
This is another data set of the same source.

Experiment [5] deals with T1, human GPC3 on cells. Kind of experiment: FACS, HEPG2 cells. Here is the method:
as §1, §2

Experiment [6] has as its target T1, human GPC3 on cells. The experiment can be described thus: FACS, GPC3-CHOK1 cells. Summed up: as §3
The source holds these as a separate data set.

Experiment [7] has as its target T2, human GPC3-his tag protein (human, UniProt P51654 25-559, limits assumed).
T2 construct: recombinant soluble antigen used as analyte in all Biacore runs; also called recombinant GPC3 protein; rhGPC3-His; not shown: His tag
The experiment can be described thus: SPR Biacore 8K, mAb captured on CM5, GPC3-his dilution series. Here is the method:
The binding of the chimeric 52H5D3B8 mAb to human GPC3-his was tested with Biacore using a capture method. The 52H5D3B8 mAb was captured using CM5 sensor chip. A serial dilution of human GPC3-his tag protein was injected over captured antibody for 2 mins at a flow rate of 30 μl/min. The antigen was allowed to dissociate for 360 s. All the experiments were carried out on a Biacore 8K. Data analysis was carried out using Biacore 8K evaluation software.
Background: SPR reads the build-up and loss of mass on a sensor chip optically.

A further experiment addresses T3, cynomolgus GPC3 protein (cynomolgus, UniProt A0A2K5VK50 24-553, The natural protein carries heparan sulfate chains and may be cleaved by furin between the alpha (24-357) and beta (358-553) subunits, which stay disulfide-linked. It is written here as one …).
T3 construct: protein coated on plates in the cross species ELISA
The experiment can be described thus: ELISA, coated cynomolgus GPC3. The method, then:
ELISA testing was carried out to evaluate the binding of chimeric antibodies to human, mouse and cynomolgus GPC3, respectively.
Briefly, microtiter plates were coated with human, mouse and cynomolgus GPC3 proteins at 1 μg/ml in PBS, 100 μl/well at 4° C. overnight, then blocked with 150 μl/well of 1% BSA. Three-fold dilutions of chimeric antibodies starting from 9 μg/ml were added to each well and incubated for 1 hour at 37° C. The plates were washed with PBS/Tween and then incubate with mouse-anti-human IgG Fc antibody conjugated with Horse Radish Peroxidase (HRP) for 30 mins at 37° C. After washing, the plates were developed with TMB substrate and analyzed by spectrophotometer at OD 450 nm. The 52H5D3B8 antibody bound to human, cynomolgus GPC3 and mouse GPC3 (FIG. 3 and Table 4).
For orientation: An ELISA detects its analyte on a solid surface through an enzyme-linked reagent.

What is called EC50 is the concentration at which the effect is half-maximal. A higher EC50 goes with weaker potency. For orientation: Kd means a measure of binding affinity in units of concentration. Read a low Kd as a tighter complex. What is called koff is the rate constant with which the complex falls apart. A lower koff goes with slow dissociation. One may read the kon as the rate constant with which the complex forms.

B1: 52H5D3B8 chimeric mAb (antibody, V domains shown)
VH: QVQLQQSGAELVRPGASVKLSCKALGYTFTDYEMHWVKQTPVHGLEWIGAIHPGSGGTAYNQKFKGKATLTADKFSSTGYMELSSLTSEDSAVYYCTRFYSYAYWGQGTLVTVSA
VL: DVVMTQTPLSLPVSLGDQASISCRSSQSLVHSNGNTYLQWYLQKPGQSPKLLIYKVSNRFSGVPDRFSGSGSGTDFILKISRVEAEDLGVYFCSQSIHVPYTFGGGTKLEIK
notes: also called 52H5D3B8-VH+VL; chimeric 52H5D3B8 mAb
Regarding B1, the EC50 with human GPC3 on cells [1] is 0.192 µg/mL; with human GPC3 on cells [2] it was 0.0469 µg/mL; with human GPC3 on cells [3] it was 0.0479 µg/mL; with human GPC3 on cells [4], 0.0795 µg/mL; with human GPC3 on cells [5], 0.111 µg/mL; in the experiment with human GPC3 on cells [6], 0.0477 µg/mL. This molecule also gave a concentration giving a half-maximal response (EC50) in the experiment with cynomolgus GPC3 protein of 0.0152 µg/mL. In experiment [7], this molecule gave a Kd of 843 pM. Moreover, in experiment [7], the koff amounted to 0.000466 s⁻¹. In experiment [7], this molecule showed a kon of 552000 M⁻¹ s⁻¹.
